# Experimental data as given in the supplement of paper PMC7877785.
# ± gives the uncertainty stated by the source.
# Assay: self-splicing fitness, log relative to wild type (ln ratio); higher = more splicing; Tetrahymena group I intron in knt gene, E. coli kanamycin selection, DiMSum; sequences stand for … in CUCUCU…GGAGGGAAAAGUUAUCAGGCAUGCACCUGGUAGCUAGUCUUUAAACCAAUAGAUUGCAUCGGUUUAAAAGGCAAGACCGUCAAAUUGCGGGAAAGGGGUCAACAGCCGUUCAGUACCAAGUCUCAGGGGAAACUUUGAGAUGGCCUUGCAAAGGGUAUGGUAAUAAGCUGACGGACAUGGUCCUAACCACGCAGCCAAGUCCUAAGUCAACAGAUCUUCUGUUGAUAUGGAUGCAGUUCACAGACUAAAUGUCGGUCGGGGAAGAUGUAUUCUUCUCAUAAGAUAUAGUCGGACCUCUCCUUAAUGGGAGCUAGCGGAUGAAGUGAUGCAACACUGGAGCCGCUGGGAACUAAUUUGUAUGCGAAAGUAUAUUGAUUAGUUUUGGAGUACUCGUGGUCG
# Summary of the method: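 Pooled colonies went to amplicon sequencing on an Illumina HiSeq 2500 after six replicate transformations. The plates were LB agar with 100 μg/mL carbenicillin, 50 μM IPTG and 0.2% rhamnose, with or without 25 μg/mL kanamycin, incubated overnight at 37°C or 30°C. The E. coli BL21(DE3) library had all eight P1ex-region intron nucleotides randomised, the intron placed in the knt kanamycin-resistance gene on pET-22b(+). DiMSum fitness is the error-weighted combination of replicate fold changes, kanamycin against none, normalised to wild type.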
Sequence,self-splicing fitness (ln) (30 °C),self-splicing fitness (ln) (37 °C)
AGUAAGCAAUAUUACGUUAG,-1.71 ± 0.33,
AGUAAGCAAUAUUACGUUGG,-3.59 ± 0.48,-2.64 ± 0.36
AGUCAGCAAUAUUACGAUUG,-1.38 ± 0.11,-0.258 ± 0.15
AGUCAGCAAUAUUACGCGAU,-3.56 ± 0.24,-1.01 ± 0.14
AGUCAGCAAUAUUACGCGGG,-2.8 ± 0.16,-1.06 ± 0.2
AGUCAGCAAUAUUACGGAGC,-2.57 ± 0.12,-1.74 ± 0.13
AGUCAGCAAUAUUACGGAGU,-1.63 ± 0.062,-0.578 ± 0.073
AGUCAGCAAUAUUACGGCAA,-0.287 ± 0.083,-0.215 ± 0.081
AGUCAGCAAUAUUACGGUAA,-2.02 ± 0.12,-1.19 ± 0.099
AGUCAGCAAUAUUACGGUUA,-1.15 ± 0.087,-0.533 ± 0.073
AGUCAGCAAUAUUACGUAAG,-1.61 ± 0.1,-0.51 ± 0.11
AGUCAGCAAUAUUACGUAUG,-3.48 ± 0.18,-2.43 ± 0.19
AGUCAGCAAUAUUACGUAUU,-1.08 ± 0.079,-0.181 ± 0.094
AGUCAGCAAUAUUACGUCCU,-0.258 ± 0.1,-0.279 ± 0.15
AGUCAGCAAUAUUACGUGAU,-1.52 ± 0.077,-0.719 ± 0.1
AGUCAGCAAUAUUACGUUAC,-2.88 ± 0.16,-2.36 ± 0.21
AGUGAGCAAUAUUACGACGC,-1.01 ± 0.2,-0.737 ± 0.29
AGUGAGCAAUAUUACGAGCU,-2.44 ± 0.23,-1.07 ± 0.5
AGUGAGCAAUAUUACGCACU,-2.97 ± 0.44,-2.24 ± 0.38
AGUGAGCAAUAUUACGCAUA,-4.2 ± 0.43,-2.56 ± 0.29

Sequence,self-splicing fitness (ln) (30 °C),self-splicing fitness (ln) (37 °C)
AGUGAGCAAUAUUACGCGCA,-2.29 ± 0.2,-2.38 ± 0.2
AGUGAGCAAUAUUACGCGGU,-3.93 ± 0.25,-3.01 ± 0.23
AGUGAGCAAUAUUACGCUAA,,-2.09 ± 0.26
AGUGAGCAAUAUUACGGAAU,-3.11 ± 0.18,-2.16 ± 0.13
AGUGAGCAAUAUUACGGACA,-1.09 ± 0.2,-1.5 ± 0.27
AGUGAGCAAUAUUACGUAAC,-4.68 ± 0.23,-1.67 ± 0.14
AGUGAGCAAUAUUACGUCGC,-2.66 ± 0.41,
AGUGAGCAAUAUUACGUGCC,-2.42 ± 0.49,-1.3 ± 0.38
AGUGAGCAAUAUUACGUUUG,-3.7 ± 0.23,-2.8 ± 0.24
AGUUAGCAAUAUUACGAAAA,-2.79 ± 0.49,-1.5 ± 0.32
AGUUAGCAAUAUUACGAACA,-0.687 ± 0.12,0.168 ± 0.17
AGUUAGCAAUAUUACGACGG,-0.829 ± 0.15,-0.189 ± 0.18
AGUUAGCAAUAUUACGAGGG,-4.11 ± 0.38,-2.06 ± 0.33
AGUUAGCAAUAUUACGCACG,-1.42 ± 0.19,0.196 ± 0.22
AGUUAGCAAUAUUACGCCUU,-0.974 ± 0.23,-0.383 ± 0.33
AGUUAGCAAUAUUACGCGGA,-0.823 ± 0.29,-0.581 ± 0.14
AGUUAGCAAUAUUACGCUCA,-1.23 ± 0.16,-0.21 ± 0.15
AGUUAGCAAUAUUACGCUUC,-2.8 ± 0.18,
AGUUAGCAAUAUUACGGAAG,-3.57 ± 0.3,-3.07 ± 0.43
